B1: full length MG491 protein (residues 1 to 346) (natural protein)
chain: MVNNEYQQLNTLVESDDEADLVIANLVKQLNELKQILVSLDNQEASATAVTDKKEEEYNQNQSSFHNFSKETLQKQAKRGFLLLERCSLVGLQQLELEYVNLLGRSFDSYQQKTELLNNLKELVDEHFSDTEKIINTLEKIFDVIGGSEYTPVLNSFFNKLLSDPDPIQREIGLRQFIITLRQRFKKLSQKIDSSLKQIETEAKIATEQVQNSEVMFGPPDIANDHELNLNWPDSETDAILSSMENELEAALLAKHQEEPPLIVTPPSLIKPTVSQPEVEVVTPTNNTNFQPQVDLKPTDLKKQQKKKPLNFITRPVFKSNLPPKLSKDDIVHYAHQLLEKNTHNE
notes: MG491, terminal organelle protein of Mycoplasma genitalium G37, residues 1-346; the TGA codon of Trp232 was changed to TGG for expression in E. coli (no change of the protein); Cloned in pET21d between NdeI and XhoI; In the crystals the C-terminal region was lost by proteolysis; also called MG_491 gene product; wild type MG491; source: E. coli BL21 (DE3), purified (HisTrap HP, Superdex 200 16/60)
B2: seleno methionine-labeled MG491-Nt (domain or fragment)
chain: MVNNEYQQLNTLVESDDEADLVIANLVKQLNELKQMLVSLDNQEASATAVTDKKEEEYNQNQSSFHNFSKETLQKQAKRGFLLLERCSLVGLQQLELEYVNLLGRSFDSYQQKTELLNNLKELVDEHFSDTEKIINTLEKIFDVIGGSEYTPVLNSFFNKLLSDPDPMQREIGLRQFIITLRQRFKKLSQKIDSSLKQIETEAKMATEQVQNSEVMFGPPDIANDHELNLNWPDSETDAILSSMENELEAALLAKHQEEPPLIVTPPSLIKPTVSQPEVEVVTPTNNTNFQPQVDLKPTDLKKQQKKK
modifications: seleno methionines at 36, 168 and 205
notes: MG491 of Mycoplasma genitalium G37, residues 1-308, with Ile36, Ile168 and Ile205 replaced by (seleno)methionine; residues 65-204, 67-203, 66-203 and 62-205 of subunits A-D are seen in the structure; also called Seleno methionine MG491-Nt; MG491-Nt variant with Ile36, Ile168, Ile205 replaced by seleno methionines; source: E. coli BL21 (DE3) in SelenoMet medium, purified (HisTrap HP, Superdex 200 …)

What was measured:
[1] = biological target: MG491-Nt (residues 1 to 308) (Mycoplasma genitalium G37) (UniProt Q9ZB78); experiment: SEC; Superdex 200 16/60 gel filtration column, 0.05 M Tris-HCl (pH 8.0), 0.15 M NaCl; apparent molecular weight
[2] = biological target: MG491-Nt (residues 1 to 308) (Mycoplasma genitalium G37) (UniProt Q9ZB78); experiment: native MS; nano-ElectroSpray Ionization Mass Spectrometry, 10 μM MG491-Nt in 100 mM NH4OAc, acquisition range 500-8000 m/z
[3] = biological target: MG491-Nt (residues 1 to 308) (Mycoplasma genitalium G37) (UniProt Q9ZB78); experiment: crystal structure; vapour diffusion at 20°C, 0.2 M lithium sulphate, 25% PEG 3350, pH 6.5-8.5; space group P2(1)2(1)2, four subunits in the asymmetric unit; SAD on seleno methionine MG491-Nt, averaging between crystals
[4] = biological target: the molecule itself; experiment: as above

Molecule	stoichiometry N [1]	stoichiometry N [2]	stoichiometry N [3]	stoichiometry N [4]
MG491-Nt (residues 1 to 308) (from UniProt Q9ZB78 1-308) (domain or fragment)	4	4	4	
B1				4
B2				4

Reference: article PMC4833410, “Structure-Guided Mutations in the Terminal Organelle Protein MG491 Cause Major Motility and Morphologic Alterations on Mycoplasma genitalium” (PLoS Pathogens, 2016)
